The chains are these.
B1: Sly1 (full length, aa1-667) (natural protein, S. cerevisiae, UniProt P22213 1-666, looked up)
chain: MAVEEIASRKDISLRDMQISAILKMLFLNKDLNNNDNITTITDDIFNQQEIIWKVLILDIKSTATISSVLRVNDLLKAGITVHSLIKQDRSPLPDVPAIYFVSPTKENIDIIVNDLKSDKYSEFYINFTSSLPRNLLEDLAQQVSITGKSDKIKQVYDQYLDFIVTEPELFSLEISNAYLTLNDPKTTEEEITGLCANIADGLFNTVLTINSIPIIRAAKGGPAEIIAEKLGTKLRDFVINTNSSSTSTLQGNDSLERGVLIILDRNIDFASMFSHSWIYQCMVFDIFKLSRNTVTIPLESKENGTDNTTAKPLATKKYDIEPNDFFWMENSHLPFPEAAENVEAALNTYKEEAAEITRKTGVTNISDLDPNSNNDTVQIQEVVKKLPELTAKKNTIDTHMNIFAALLSQLESKSLDTFFEVEQDPGSTKTRSRFLDILKDGKTNNLEDKLRSFIVLYLTSTTGLPKDFVQNVENYFKENDYDINALKYVYKLREFMQLSNMSLQNKSLEDGSDSAFKPSNLTLSGIYGLTEGKLQGGVGSLISGIKKLLPEKKTIPITNVVDAIMDPLNSSQKNLETTDSYLYIDPKITRGSHTRKPKRQSYNKSLVFVVGGGNYLEYQNLQEWAHSQLHNPKKVMYGSTAITTPAEFLNEISRLGASNSSNNDA
notes: Sly1, Golgi SM protein, S. cerevisiae, printed as full-length aa1-667; construct His6-(tev)-Sly1; as I recall the UniProt entry has 666 residues; the printed 667 may count the stop codon; also called His6-Sly1; Golgi SM protein; source: E. coli (pRIL plasmid), purified (Ni-NTA)

Settings in all cases: both partners purified
Assay [1] concerns the target T1, Sec17–Golgi SNARE complex (Sec17 bound to the Golgi SNARE complex on GST-Sed5 SNARE domain) (S. cerevisiae, UniProt Q01590 170-319; P25385 1-222; P22804 1-123; P22214 1-188; P32602 1-292).
T1 construct: Sed5, Qa-SNARE, S. cerevisiae, aa170-319; Bos1, Qb-SNARE, S. cerevisiae, aa1-222; Bet1, Qc-SNARE, S. cerevisiae, aa1-123; Sec22, R-SNARE, S. cerevisiae, aa1-188; Sec17, S. cerevisiae; in most experiments Sec17 and Sly1 were added together to the immobilised SNARE complex; also called SNARE-Sec17 complex; Sec17–SNARE complex; source: assembled on …
T1 sequence (looked up) 1: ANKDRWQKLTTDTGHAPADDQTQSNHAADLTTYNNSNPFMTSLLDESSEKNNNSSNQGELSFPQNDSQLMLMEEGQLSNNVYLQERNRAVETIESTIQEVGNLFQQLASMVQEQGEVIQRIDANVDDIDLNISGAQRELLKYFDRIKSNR
T1 sequence (looked up) 2: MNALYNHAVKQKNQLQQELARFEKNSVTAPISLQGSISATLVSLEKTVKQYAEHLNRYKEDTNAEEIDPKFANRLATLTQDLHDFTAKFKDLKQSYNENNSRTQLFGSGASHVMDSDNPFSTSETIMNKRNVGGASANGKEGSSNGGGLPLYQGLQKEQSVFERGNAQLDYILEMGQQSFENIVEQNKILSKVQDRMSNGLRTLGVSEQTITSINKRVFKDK
T1 sequence (looked up) 3: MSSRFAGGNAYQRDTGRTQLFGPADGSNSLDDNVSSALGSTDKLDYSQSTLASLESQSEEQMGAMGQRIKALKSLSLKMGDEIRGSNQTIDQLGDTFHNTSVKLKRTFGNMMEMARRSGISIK
T1 sequence (looked up) 4: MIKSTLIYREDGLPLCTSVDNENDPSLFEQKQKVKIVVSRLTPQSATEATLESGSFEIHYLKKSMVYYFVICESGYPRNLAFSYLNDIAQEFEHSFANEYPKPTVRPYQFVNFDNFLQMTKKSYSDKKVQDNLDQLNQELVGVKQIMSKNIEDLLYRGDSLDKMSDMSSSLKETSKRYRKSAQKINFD
T1 sequence (looked up) 5: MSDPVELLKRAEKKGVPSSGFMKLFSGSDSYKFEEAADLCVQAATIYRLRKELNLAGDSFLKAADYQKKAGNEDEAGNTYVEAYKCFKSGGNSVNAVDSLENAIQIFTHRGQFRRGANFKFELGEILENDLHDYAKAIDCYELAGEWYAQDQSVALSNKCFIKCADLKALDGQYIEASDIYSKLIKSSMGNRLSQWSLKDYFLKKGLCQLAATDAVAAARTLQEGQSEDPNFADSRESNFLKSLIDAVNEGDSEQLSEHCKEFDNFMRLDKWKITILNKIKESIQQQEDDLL
The experiment in a line: pull-down; quantitative: immobilised SNARE complex, SM concentration varied, with or without Sec17, 30°C; SYPRO Ruby with standard curves; fractional saturation against free SM, one-site model; apparent (Kdobs), non-equilibrium measurements.

For assay [2], the target named is T1, Sec17–Golgi SNARE complex (Sec17 bound …). The experiment in a line: pull-down; stoichiometry: complexes assembled on immobilised SNARE complex under saturation binding conditions; SDS-PAGE, SYPRO Ruby, band intensities against standard curves of the purified proteins; apparent.
Assay [3] deals with B1. The experiment in a line: pull-down; full cytoplasmic domain of Sed5 (GST-Sed5FL, 500 nM) immobilised without assembled SNARE complex; Sly1 (10 µM) and Sec17; 30°C; Coomassie.

In the case of B1, the Kd in assay [1] came out at 1000 ± 100 nM. Moreover, in assay [2], the “stoichiometry N” value was found to be 1 Sly1 per SNARE complex.

B2: GST-Sed5 full cytoplasmic domain (aa1-319) (domain or fragment, S. cerevisiae, UniProt Q01590 1-319, looked up)
chain: MNIKDRTSEFQQSVLSYKKRNKNFREQQRERLQEKESENFANNTTGNGKSVSEFQKKASGIAHEISSTAQLLSKLAVLAKRKPMFNDNPVEIAELSFLIKRKIYAIEQSLVQLSQLKKTDVNGNTSNQSSKQPSAVQHSKNVVNLLNTQMKNISGSFKDVLEERQRLEMANKDRWQKLTTDTGHAPADDQTQSNHAADLTTYNNSNPFMTSLLDESSEKNNNSSNQGELSFPQNDSQLMLMEEGQLSNNVYLQERNRAVETIESTIQEVGNLFQQLASMVQEQGEVIQRIDANVDDIDLNISGAQRELLKYFDRIKSNR
notes: Sed5, Golgi Qa-SNARE, S. cerevisiae, full cytoplasmic domain aa1-319 with N-peptide and Habc segments, no transmembrane domain; also called GST-Sed5FL; Sed5FL; not shown: GST, N-terminal, kept
Regarding B2, the binding result in assay [3] is “binds”.

One may read the stoichiometry N as the number of molecules, sites or subunits per partner or assembly.

Values taken from paper PMC4060006, “SM proteins Sly1 and Vps33 co-assemble with Sec17 and SNARE complexes to oppose SNARE disassembly by Sec18” (eLife, 2014).
